Read-outs that look alike come from different tables or passages of the source.
How the values were obtained:
Assay in all cases: ELISA
[1] = target: T1, Fc-NKG2D.wt (natural human NKG2D ectodomain fused to the C-terminus of human IgG1 Fc)
eNKG2D3 T|Y = target: eNKG2D3 T|Y
eNKG2D14 L|Y = target: eNKG2D14 L|Y
eNKG2D4 V|Y = target: eNKG2D4 V|Y
eNKG2D2 S|Y = target: eNKG2D2 S|Y
[2] = target: T1, Fc-NKG2D.wt (natural human NKG2D …); remark: listed apart in the source
[3] = target: T1, Fc-NKG2D.wt (natural human NKG2D …); remark: listed apart in the source

B1: rituximab-ULBP2.S3 MicAbody (bispecific antibody)
heavy: not shown
light: QIVLSQSPAILSASPGEKVTMTCRASSSVSYIHWFQQKPGSSPKPWIYATSNLASGVPVRFSGSGSGTSYSLTISRVEAEDAATYYCQQWTSNPPTFGGGTKLEIKRTVAAPSVFIFPPSDEQLKSGTASVVCLLNNFYPREAKVQWKVDNALQSGNSQESVTEQDSKDSTYSLSSTLTLSKADYEKHKVYACEVTHQGLSSPVTKSFNRGECAPTSSSGGGGSEPHSLSYDITVIPKFRPGPRWCAVQGQVDEKTFLHYDCGNKTVTPVSPLGKKLNVTTAWKAQNPVLREVVDILTEQLWDIQLENYTPKEPLTLQARMSCEQKAEGHSSGSWQFSFDGQIFLLFDSEKRMWTTVHPGARKMKEKWENDKVVATKLYLWSMGDCIGWLEDFLMGMDSTLEPS
- EC50 [1]: 52.7 nM

B2: ULBP2.wt (bispecific antibody)
heavy: not shown
light: QIVLSQSPAILSASPGEKVTMTCRASSSVSYIHWFQQKPGSSPKPWIYATSNLASGVPVRFSGSGSGTSYSLTISRVEAEDAATYYCQQWTSNPPTFGGGTKLEIKRTVAAPSVFIFPPSDEQLKSGTASVVCLLNNFYPREAKVQWKVDNALQSGNSQESVTEQDSKDSTYSLSSTLTLSKADYEKHKVYACEVTHQGLSSPVTKSFNRGECAPTSSSGGGGSEPHSLSYDITVIPKFRPGPRWCAVQGQVDEKTFLHYDCGNKTVTPVSPLGKKLNVTTAWKAQNPVLREVVDILTEQLRDIQLENYTPKEPLTLQARMSCEQKAEGHSSGSWQFSFDGQIFLLFDSEKRMWTTVHPGARKMKEKWENDKVVAMSFHYFSMGDCIGWLEDFLMGMDSTLEPS
- EC50 (eNKG2D3 T|Y): 31.1 nM
- EC50 (eNKG2D14 L|Y): 87.6 nM
- EC50 (eNKG2D4 V|Y): 35.8 nM
- EC50 (eNKG2D2 S|Y): 34.8 nM

B3: ULBP2.wt rituximab-MicAbody (bispecific antibody)
heavy: not shown
light: QIVLSQSPAILSASPGEKVTMTCRASSSVSYIHWFQQKPGSSPKPWIYATSNLASGVPVRFSGSGSGTSYSLTISRVEAEDAATYYCQQWTSNPPTFGGGTKLEIKRTVAAPSVFIFPPSDEQLKSGTASVVCLLNNFYPREAKVQWKVDNALQSGNSQESVTEQDSKDSTYSLSSTLTLSKADYEKHKVYACEVTHQGLSSPVTKSFNRGECAPTSSSGGGGSEPHSLSYDITVIPKFRPGPRWCAVQGQVDEKTFLHYDCGNKTVTPVSPLGKKLNVTTAWKAQNPVLREVVDILTEQLRDIQLENYTPKEPLTLQARMSCEQKAEGHSSGSWQFSFDGQIFLLFDSEKRMWTTVHPGARKMKEKWENDKVVAMSFHYFSMGDCIGWLEDFLMGMDSTLEPS
- EC50 [2]: 1.41 nM
- EC50 [1]: 1.02 nM

B4: rituximab-ULBP2.AA MicAbody (bispecific antibody)
heavy: not shown
light: QIVLSQSPAILSASPGEKVTMTCRASSSVSYIHWFQQKPGSSPKPWIYATSNLASGVPVRFSGSGSGTSYSLTISRVEAEDAATYYCQQWTSNPPTFGGGTKLEIKTVAAPSVFIFPPSDEQLKSGTASVVCLLNNFYPREAKVQWKVDNALQSGNSQESVTEQDSKDSTYSLSSTLTLSKADYEKHKVYACEVTHQGLSSPVTKSFNRGECAPTSSSGGGGSEPHSLSYDITVIPKFRPGPRWCAVQGQVDEKTFLHYDCGNKTVTPVSPLGKKLNVTTAWKAQNPVLREVVDILTEQLWDIQLENYTPKEPLTLQARMSCEQKAEGHSSGSWQFSFDGQIFLLFDSEKRMWTTVHPGARKMKEKWENDKVVATMFWSWSMGDCIGWLEDFLMGMDSTLEPS
- EC50 [3]: 655 nM

B5: rituximab-ULBP2.C MicAbody (bispecific antibody)
heavy: not shown
light: QIVLSQSPAILSASPGEKVTMTCRASSSVSYIHWFQQKPGSSPKPWIYATSNLASGVPVRFSGSGSGTSYSLTISRVEAEDAATYYCQQWTSNPPTFGGGTKLEIKTVAAPSVFIFPPSDEQLKSGTASVVCLLNNFYPREAKVQWKVDNALQSGNSQESVTEQDSKDSTYSLSSTLTLSKADYEKHKVYACEVTHQGLSSPVTKSFNRGECAPTSSSGGGGSEPHSLSYDITVIPKFRPGPRWCAVQGQVDEKTFLHYDCGNKTVTPVSPLGKKLNVTTAWKAQNPVLREVVDILTEQLWDIQLENYTPKEPLTLQARMSCEQKAEGHSSGSWQFSFDGQIFLLFDSEKRMWTTVHPGARKMKEKWENDKVVATILWQTSMGDCIGWLEDFLMGMDSTLEPS
- EC50 [3]: 130 nM

B6: rituximab-ULBP2.AB MicAbody (bispecific antibody)
heavy: not shown
light: QIVLSQSPAILSASPGEKVTMTCRASSSVSYIHWFQQKPGSSPKPWIYATSNLASGVPVRFSGSGSGTSYSLTISRVEAEDAATYYCQQWTSNPPTFGGGTKLEIKTVAAPSVFIFPPSDEQLKSGTASVVCLLNNFYPREAKVQWKVDNALQSGNSQESVTEQDSKDSTYSLSSTLTLSKADYEKHKVYACEVTHQGLSSPVTKSFNRGECAPTSSSGGGGSEPHSLSYDITVIPKFRPGPRWCAVQGQVDEKTFLHYDCGNKTVTPVSPLGKKLNVTTAWKAQNPVLREVVDILTEQLWDIQLENYTPKEPLTLQARMSCEQKAEGHSSGSWQFSFDGQIFLLFDSEKRMWTTVHPGARKMKEKWENDKVVATLMWQWSMGDCIGWLEDFLMGMDSTLEPS
- EC50 [3]: 389 nM

— patent US20250109178A1 (published 2025)
